Results published in patent US20210380703A1 (RIGEL PHARMACEUTICALS, published 2021).

Experiments:
Human ACVR2A = biological target: T1, Human ACVR2A (human, UniProt P27037 20-135, limits assumed); test: ELISA
T1 construct: also called activin receptor, type II A
Method: (§1) The binding of ACVR2A-specific monoclonal antibodies to human ACVR2A, mouse ACVR2A, biotinylated goat anti-human kappa light chain (positive control) and human Fc (negative control) were determined by ELISA.

Mouse ACVR2A = Mouse ACVR2A (mouse, UniProt P27038 20-135, limits assumed); test: ELISA
Method: as §1

Goat anti-Human Kappa = biological target: T2, Goat anti-Human Kappa; test: ELISA; positive control
T2 construct: Positive control; also called biotinylated goat anti-human kappa light chain
Method: as §1
Also: test concentration or dose not given here.

T1 sequence (P27037 20-135 limits assumed): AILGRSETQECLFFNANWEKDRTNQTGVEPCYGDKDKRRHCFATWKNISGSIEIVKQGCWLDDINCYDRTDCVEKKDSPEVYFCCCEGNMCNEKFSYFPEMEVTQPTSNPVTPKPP
Sequence of Mouse ACVR2A (P27038 20-135 limits assumed): as the sequence (P27037 20-135 limits assumed) above, with K20R, V73I counted along it

Binder	optical density (Human ACVR2A)	optical density (Mouse ACVR2A)	optical density (Goat anti-Human Kappa)
367_A04 (antibody, V domains shown, VH/VL only) VH: EVQLLESGGGLVQPGGSLRLSCAASGFTFSSYSMNWVRQAPGKGLEWVSNINYNSGYKSYADSVKGRFTISRDNSKNTLYLQMNSLRAEDTAVYYCARSANWHDTALDYWGQGTLVTVSS VL: DIQMTQSPSSLSASVGDRVTITCRASQSIITYLNWYQQKPGKAPKLLIYAATSRASGVPSRFSGSGSGTDFTLTISSLQPEDFATYYCQQSDDSPLTFGGGTKVEIK	2.14 OD	2.2 OD	3.3 OD
367_B07 (antibody, V domains shown, VH/VL only) VH: EVQLLESGGGLVQPGGSLRLSCAASGFTFSDYSMNWVRQAPGKGLEWVAGINYNSGYTGYADSVKGRFTISRDNSKNTLYLQMNSLRAEDTAVYYCARSANWHDTHLDYWGQGTLVTVSS VL: DIQMTQSPSSLSASVGDRVTITCRASQSIISYVNWYQQKPGKAPKLLIYAATSLASGVPSRFSGSGSGTDFTLTISSLQPEDFATYYCQQSYNLPLTFGGGTKVEIK	1.42 OD	1.49 OD	3.34 OD
367_H05 (antibody, V domains shown, VH/VL only) VH: EVQLLESGGGLVQPGGSLRLSCAASGFTFSSYGMHWVRQAPGKGLEWVASINYNSGYKSYADSVKGRFTISRDNSKNTLYLQMNSLRAEDTAVYYCARGATWHDTHLDYWGQGTLVTVSS VL: not shown	2.44 OD	2.7 OD	3.59 OD
368_D02 (antibody, V domains shown, VH/VL only) VH: EVQLLESGGGLVQPGGSLRLSCAASGFTFDDYGMNWVRQAPGKGLEWVSNINYNGGYTGYADSVKGRFTISRDNSKNTLYLQMNSLRAEDTAVYYCARGATWHDTHLDYWGQGTLVTVSS VL: DIQMTQSPSSLSASVGDRVTITCRASQSISTYLNWYQQKPGKAPKLVIYAATSRHSGVPSRFSGSGSGTDFTLTISSLQPEDFATYYCQQSYDTPLTFGGGTKVEIK	1.93 OD	2.26 OD	3.52 OD
367_D09 (antibody, V domains shown, VH/VL only) VH: EVQLLESGGGLVQPGGSLRLSCAASGFTFDSYGMNWVRQAPGKGLEWVASINYNGGYKSYADSVKGRFTISRDNSKNTLYLQMNSLRAEDTAVYYCARGATWHDTHLDYWGQGTLVTVSS VL: DIQMTQSPSSLSASVGDRVTITCRASQSILTYLNWYQQKPGKAPKLLIYAATSLASGVPSRFSGSGSGTDFTLTISSLQPEDFATYYCQQSYDNPLTFGGGTKVEIK	2.15 OD	2.04 OD	3.37 OD
368_F06 (antibody, V domains shown, VH/VL only) VH: EVQLLESGGGLVQPGGSLRLSCAASGFTFDDYSMHWVRQAPGKGLEWVANINYNSGYTGYADSVKGRFTISRDNSKNTLYLQMNSLRAEDTAVYYCARGATWHDTHLDYWGQGTLVTVSS VL: DIQMTQSPSSLSASVGDRVTITCRASQSILSYLNWYQQKPGKAPKLVIYATTSRASGVPSRFSGSGSGTDFTLTISSLQPEDFATYYCQQSYENPLTFGGGTKVEIK	1.6 OD	1.68 OD	3.31 OD
367_C08 (antibody, V domains shown, VH/VL only) VH: EVQLLESGGGLVQPGGSLRLSCAASGFTFDSYSMHWVRQAPGKGLEWVAGINYNGGYTSYADSVKGRFTISRDNSKNTLYLQMNSLRAEDTAVYYCARGATWHDTHLDYWGQGTLVTVSS VL: DIQMTQSPSSLSASVGDRVTITCRASQSILTYLNWYQQKPGKAPKLLIYAATSLASGVPSRFSGSGSGTDFTLTISSLQPEDFATYYCQQSDSNPLTFGGGTKVEIK	1.12 OD	1.22 OD	3.05 OD
367_B08 (antibody, V domains shown, VH/VL only) VH: EVQLLESGGGLVQPGGSLRLSCAASGFTFSDYGMNWVRQAPGKGLEWVSGINYNGGYKGYADSVKGRFTISRDNSKNTLYLQMNSLRAEDTAVYYCARSANWHDTALDYWGQGTLVTVSS VL: DIQMTQSPSSLSASVGDRVTITCRASQSILTYLNWYQQKPGKAPKLVIYAATSRASGVPSRFSGSGSGTDFTLTISSLQPEDFATYYCQQSYDNPLTFGGGTKVEIK	2.13 OD	2.25 OD	3.03 OD

Second part, the binder after the results:

optical density (Human ACVR2A)	optical density (Mouse ACVR2A)	optical density (Goat anti-Human Kappa)	Binder
2.25 OD	2.28 OD	3.57 OD	368_D12 (antibody, V domains shown, VH/VL only) VH: EVQLLESGGGLVQPGGSLRLSCAASGFTFSSYGMNWVRQAPGKGLEWVSSINYNGGYTSYADSVKGRFTISRDNSKNTLYLQMNSLRAEDTAVYYCARGATWHDTHLDYWGQGTLVTVSS VL: DIQMTQSPSSLSASVGDRVTITCRASQSILSYVNWYQQKPGKAPKLVIYAATSRASGVPSRFSGSGSGTDFTLTISSLQPEDFATYYCQQSYNNPLTFGGGTKVEIK
2.08 OD	2.24 OD	3.61 OD	368_B02 (antibody, V domains shown, VH/VL only) VH: EVQLLESGGGLVQPGGSLRLSCAASGFTFSSYGMNWVRQAPGKGLEWVSGINYNSGYKSYADSVKGRFTISRDNSKNTLYLQMNSLRAEDTAVYYCARGATWHDTHLDYWGQGTLVTVSS VL: not shown
1.94 OD	2.06 OD	3.21 OD	367_E07 (antibody, V domains shown, VH/VL only) VH: EVQLLESGGGLVQPGGSLRLSCAASGFTFSDYSMNWVRQAPGKGLEWVSSINYNGGYKGYADSVKGRFTISRDNSKNTLYLQMNSLRAEDTAVYYCARGATWHDTHLDYWGQGTLVTVSS VL: DIQMTQSPSSLSASVGDRVTITCRASQSILSYVNWYQQKPGKAPKLVIYAATSRASGVPSRFSGSGSGTDFTLTISSLQPEDFATYYCQQSYENPLTFGGGTKVEIK
2.03 OD	2.21 OD	3.56 OD	368_C11 (antibody, V domains shown, VH/VL only) VH: EVQLLESGGGLVQPGGSLRLSCAASGFTFSDYSMNWVRQAPGKGLEWVSSINYNSGYKSYADSVKGRFTISRDNSKNTLYLQMNSLRAEDTAVYYCARGATWHDTHLDYWGQGTLVTVSS VL: DIQMTQSPSSLSASVGDRVTITCRASQSIISYLNWYQQKPGKAPKLLIYAATSRASGVPSRFSGSGSGTDFTLTISSLQPEDFATYYCQQSYDNPLTFGGGTKVEIK
2.48 OD	2.66 OD	3.44 OD	367_B03 (antibody, V domains shown, VH/VL only) VH: EVQLLESGGGLVQPGGSLRLSCAASGFTFSSYGMNWVRQAPGKGLEWVAGINYNGGYKSYADSVKGRFTISRDNSKNTLYLQMNSLRAEDTAVYYCARSANWHDTALDYWGQGTLVTVSS VL: DIQMTQSPSSLSASVGDRVTITCRASQSILTYLNWYQQKPGKAPKLLIYAATSLASGVPSRFSGSGSGTDFTLTISSLQPEDFATYYCQQSYNLPLTFGGGTKVEIK
1.82 OD	1.89 OD	3.02 OD	367_B06 (antibody, V domains shown, VH/VL only) VH: EVQLLESGGGLVQPGGSLRLSCAASGFTFSSYSMNWVRQAPGKGLEWVANINYNGGYTGYADSVKGRFTISRDNSKNTLYLQMNSLRAEDTAVYYCARGATWHDTHLDYWGQGTLVTVSS VL: DIQMTQSPSSLSASVGDRVTITCRASQSIISYVNWYQQKPGKAPKLVIYAATSLHSGVPSRFSGSGSGTDFTLTISSLQPEDFATYYCQQSYNSPLTFGGGTKVEIK
2.58 OD	2.35 OD	3.55 OD	367_H10 (antibody, V domains shown, VH/VL only) VH: EVQLLESGGGLVQPGGSLRLSCAASGFTFSSYGMNWVRQAPGKGLEWVASINYNGGYTGYADSVKGRFTISRDNSKNTLYLQMNSLRAEDTAVYYCARGATWHDTHLDYWGQGTLVTVSS VL: DIQMTQSPSSLSASVGDRVTITCRASQSILSYVNWYQQKPGKAPKLVIYAATSRASGVPSRFSGSGSGTDFTLTISSLQPEDFATYYCQQSYELPLTFGGGTKVEIK
1.26 OD	1.37 OD	3.34 OD	367_D05 (antibody, V domains shown, VH/VL only) VH: EVQLLESGGGLVQPGGSLRLSCAASGFTFSDYSMNWVRQAPGKGLEWVSSINYNGGYKSYADSVKGRFTISRDNSKNTLYLQMNSLRAEDTAVYYCARGATWHDTHLDYWGQGTLVTVSS VL: DIQMTQSPSSLSASVGDRVTITCRASQSIISYVNWYQQKPGKAPKLVIYAATSLASGVPSRFSGSGSGTDFTLTISSLQPEDFATYYCQQSYDSPLTFGGGTKVEIK
2.69 OD	2.91 OD	3.71 OD	367_E12 (antibody, V domains shown, VH/VL only) VH: EVQLLESGGGLVQPGGSLRLSCAASGFTFSSYGMHWVRQAPGKGLEWVASINYNGGYTSYADSVKGRFTISRDNSKNTLYLQMNSLRAEDTAVYYCARGATWHDTHLDYWGQGTLVTVSS VL: DIQMTQSPSSLSASVGDRVTITCRASQSILTYVNWYQQKPGKAPKLLIYAASSLQSGVPSRFSGSGSGTDFTLTISSLQPEDFATYYCQQSYNSPLTFGGGTKVEIK
1.79 OD	1.82 OD	3.46 OD	367_F09 (antibody, V domains shown, VH/VL only) VH: EVQLLESGGGLVQPGGSLRLSCAASGFTFDSYSMHWVRQAPGKGLEWVAGINYNGGYTSYADSVKGRFTISRDNSKNTLYLQMNSLRAEDTAVYYCARGATWHDTHLDYWGQGTLVTVSS VL: DIQMTQSPSSLSASVGDRVTITCRASQSILTYLNWYQQKPGKAPKLLIYAATSLASGVPSRFSGSGSGTDFTLTISSLQPEDFATYYCQQSDSNPLTFGGGTKVEIK
2.22 OD	2.38 OD	3.38 OD	367_A05 (antibody, V domains shown, VH/VL only) VH: EVQLLESGGGLVQPGGSLRLSCAASGFTFSDYGMNWVRQAPGKGLEWVSSINYNGGYKGYADSVKGRFTISRDNSKNTLYLQMNSLRAEDTAVYYCARSANWHDTALDYWGQGTLVTVSS VL: DIQMTQSPSSLSASVGDRVTITCRASQSILSYLNWYQQKPGKAPKLVIYAVTSRASGVPSRFSGSGSGTDFTLTISSLQPEDFATYYCQQSYDSPLTFGGGTKVEIK
